Data: article PMC3985463

Molecular target: His6-UP1 C43S/C175S (hnRNP A1 UP1 domain; ITC) (Homo sapiens, UniProt P09651 1-196, C43S;C175S)
Assay: ITC

His6-UP1 C43S/C175S (hnRNP A1 UP1 domain; ITC), sequence (P09651 1-196 C43S/C175S): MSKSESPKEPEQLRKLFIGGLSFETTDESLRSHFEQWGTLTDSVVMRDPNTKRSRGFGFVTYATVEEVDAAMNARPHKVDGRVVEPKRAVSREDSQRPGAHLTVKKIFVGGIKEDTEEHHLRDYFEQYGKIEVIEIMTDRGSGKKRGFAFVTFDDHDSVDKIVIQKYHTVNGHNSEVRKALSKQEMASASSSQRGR

B1: ESS3b loop (ssRNA)
RNA: GAUUAG
In the case of B1, the Kd is reported as 4.17 ± 0.421 µM.
